Laboratory results as given in patent publication US20220332804A1 (CSL INNOVATION, published 2022).
Where a chain is given by its changes, count along the chain named.

Key:
Assay in all cases: SPR, antibody captured, C2 as analyte;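 note: biacore at 37 °C, anti-C2 mAbs held by immobilised goat anti-human IgG, C2 alanine or serine mutants injected, double-referenced sensorgrams fitted to a 1:1 kinetic or steady-state model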
human C2 E476A = molecular target: T1, human C2 E476A (human, UniProt P06681 21-752)
T1 sequence: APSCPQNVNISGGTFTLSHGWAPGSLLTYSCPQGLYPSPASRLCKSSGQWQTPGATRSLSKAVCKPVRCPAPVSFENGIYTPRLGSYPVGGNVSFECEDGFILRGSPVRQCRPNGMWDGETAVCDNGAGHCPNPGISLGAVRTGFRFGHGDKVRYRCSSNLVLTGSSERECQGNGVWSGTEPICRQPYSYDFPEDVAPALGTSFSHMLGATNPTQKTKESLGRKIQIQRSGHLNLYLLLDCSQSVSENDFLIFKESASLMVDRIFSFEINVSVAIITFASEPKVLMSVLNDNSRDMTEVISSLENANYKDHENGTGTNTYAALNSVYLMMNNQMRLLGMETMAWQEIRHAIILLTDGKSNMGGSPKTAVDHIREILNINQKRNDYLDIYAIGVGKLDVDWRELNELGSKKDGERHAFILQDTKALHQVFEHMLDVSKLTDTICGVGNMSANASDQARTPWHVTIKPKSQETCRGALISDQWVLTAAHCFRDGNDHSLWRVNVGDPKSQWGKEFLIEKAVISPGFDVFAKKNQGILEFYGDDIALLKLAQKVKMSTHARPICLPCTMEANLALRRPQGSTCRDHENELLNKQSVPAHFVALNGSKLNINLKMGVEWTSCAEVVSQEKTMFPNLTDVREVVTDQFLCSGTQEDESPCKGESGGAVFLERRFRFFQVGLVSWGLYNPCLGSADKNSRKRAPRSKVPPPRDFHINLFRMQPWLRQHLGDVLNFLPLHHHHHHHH

human C2 H446A = molecular target: T2, human C2 H446A (human, UniProt P06681 21-752)
T2 sequence: T1 sequence with H426A, A456E

human C2 R688A = molecular target: T3, human C2 R688A (human, UniProt P06681 21-752)
T3 sequence: T1 sequence with A456E, R668A

human C2 G414A = molecular target: T4, human C2 G414A (human, UniProt P06681 21-752)
T4 sequence: T1 sequence with G394A, A456E

B1: RF16-242 (antibody, human IgG4 S228P, lambda, V domains shown)
VH: EVQLLQSGAEVKKPGESLKISCKGSGYSFTSYWIGWVRQMPGKGLEWMGIIYPGDSDTRYSPSFQGQVTISADKSISTAYLQWSSLKASDTAMYYCARRGHYGDYFDYWGQGTLVTVSS
VL: SYELTQPPSVSVSPGQTARITCSGDALPKKYAYWYHQKSGQAPVLVIYEDRRRPSEIPERFSGSSSGTMATLTITGAQVEDEGVYFCYSRDRAGNQRVFGGGTQLTVLG
notes: pH-dependent anti-C2 antibody from a phage display library
- Kd (human C2 E476A): 14 nM
- Kd (human C2 H446A): 16.1 nM
- Kd (human C2 R688A): 17.3 nM
- Kd (human C2 G414A): 4.2 nM
